Reference: patent publication US20200317776A1 (published 2020)
Where two headings read alike, the source gives them in different places.

Legend:
[1] = molecular target: T1, human TREM2/DAP12 fusion protein (human, UniProt O43914 41-113, limits assumed); assay: cell-based or functional assay
[2] = molecular target: T2, human TREM2 Fc fusion (entire TREM2 ECD; only one Fc arm fused to TREM2) (human, UniProt Q9NZC2 19-174); assay: BLI, IgG, avid
T2 construct: also called huTREM2-Fc; recombinant hTREM2
T2 sequence: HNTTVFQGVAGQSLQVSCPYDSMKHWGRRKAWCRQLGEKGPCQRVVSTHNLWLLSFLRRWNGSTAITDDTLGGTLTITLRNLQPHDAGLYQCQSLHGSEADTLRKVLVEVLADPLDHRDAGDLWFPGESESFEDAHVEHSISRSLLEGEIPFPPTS
Method in brief: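 Avid format: AHQ-loaded IgGs exposed to 100 nM human or cyno TREM2-Fc antigen, 3 min association, 3 min dissociation in buffer. Monovalent format: human TREM2-Fc loaded on AHQ sensors, exposed to 100 nM Fab. Kinetics fit to 1:1 model, run at 25° C.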

[3] = molecular target: T3, cynomolgus monkey TREM2 Fc fusion (entire TREM2 ECD; only one Fc arm fused to TREM2) (cynomolgus monkey, UniProt Q9NZC2 19-174 (human entry)); assay: BLI, Fab, monovalent
T3 construct: also called cyno TREM2-Fc
T3 chain: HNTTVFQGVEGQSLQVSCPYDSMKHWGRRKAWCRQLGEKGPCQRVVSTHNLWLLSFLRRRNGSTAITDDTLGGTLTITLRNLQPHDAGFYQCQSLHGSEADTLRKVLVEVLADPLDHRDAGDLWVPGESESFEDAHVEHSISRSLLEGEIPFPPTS

[4] = molecular target: T4, human TREM2 expressed on cells (human, UniProt Q9NZC2 19-230); assay: FACS, hTREM2 BW cells
T4 construct: BW5147.G.1.4 cells stably expressing human TREM2 together with Dap12, or endogenous TREM2 of primary human myeloid cells; also called huT2 BW; hTREM2 expressing cell line
T4 sequence: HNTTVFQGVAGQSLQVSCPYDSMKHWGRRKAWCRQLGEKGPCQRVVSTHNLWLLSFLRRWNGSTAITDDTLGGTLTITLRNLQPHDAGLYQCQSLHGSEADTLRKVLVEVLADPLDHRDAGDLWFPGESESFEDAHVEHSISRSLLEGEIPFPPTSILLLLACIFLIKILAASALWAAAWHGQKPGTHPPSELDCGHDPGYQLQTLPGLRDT
Method in brief: (§1)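 Cells were BW5147.G.1.4 stably expressing human TREM2 with Dap12, or human monocyte-derived dendritic cells differentiated 6 days with GM-CSF and IL-4. Antibodies bound 1 h on ice in PBS+2% FBS, then PE anti-human secondary 30 min on ice; flow cytometry read-out as mean fluorescence intensity.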

[5] = molecular target: T4, human TREM2 expressed on cells; assay: FACS, hTREM2 BW cells; remark: listed apart in the source
[6] = molecular target: T4, human TREM2 expressed on cells; assay: cell-based or functional assay
[7] = molecular target: T1, human TREM2/DAP12 fusion protein; assay: cell-based or functional assay; remark: listed apart in the source
[8] = molecular target: T2, human TREM2 Fc fusion (entire TREM2 …); assay: BLI, Fab, monovalent
[9] = molecular target: T2, human TREM2 Fc fusion (entire TREM2 …); assay: BLI, Fab, monovalent; remark: listed apart in the source
Method in brief: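 TREM2 Fc fusion antigen was loaded onto AHQ biosensors, with a 60 s baseline in assay buffer. The sensors were then exposed to 100 nM antibody Fab for monovalent binding. Data were fitted to a 1:1 model, and the assay ran at 25 °C.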

[10] = molecular target: T4, human TREM2 expressed on cells; assay: FACS, human DCs
Method in brief: as §1

[11] = molecular target: T1, human TREM2/DAP12 fusion protein; assay: cell-based or functional assay; remark: listed apart in the source
[12] = molecular target: T4, human TREM2 expressed on cells; assay: FACS, hTREM2 BW cells; remark: listed apart in the source
Method in brief: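 BW5147.G.1.4 cells stably co-expressing human TREM2 and Dap12, 1×10⁵ cells/well, incubated with anti-TREM2 antibody 1 h on ice in PBS/2% FBS. Anti-human PE secondary 30 min on ice; flow cytometry, binding as mean fluorescence intensity.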

[13] = molecular target: T4, human TREM2 expressed on cells; assay: cell-based or functional assay; remark: listed apart in the source

T1 sequence (O43914 other isoform, or with tags, fused parts or gaps limits assumed): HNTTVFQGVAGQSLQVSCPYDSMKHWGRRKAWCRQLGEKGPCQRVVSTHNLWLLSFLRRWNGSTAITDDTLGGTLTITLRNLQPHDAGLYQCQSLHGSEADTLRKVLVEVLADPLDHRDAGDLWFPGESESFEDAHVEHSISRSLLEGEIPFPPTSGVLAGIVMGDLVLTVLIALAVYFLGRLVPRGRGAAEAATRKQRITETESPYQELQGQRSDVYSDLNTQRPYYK

luciferase activation, soluble IgG, EC50 [1]	Kd [2]	Kd [3]	Kd [4]	Kd [5]	Luciferase activation plate bound 33 nM IgG, FOC [7]	Luciferase activation soluble 10 nM IgG, FOC [7]	Kd [8]	Kd [9]	MFI [10]	Soluble luciferase activation at 10 µg/ml Fold over control [11]	cell binding (FOB) [12]	Binder	Survival huDCs plate bound IgG, AUC [6]	EC50 viability, dendritic cells D558 [13]	EC50 viability, dendritic cells D559 [13]	EC50 viability, dendritic cells D560 [13]	EC50 viability, macrophages D559 [13]	EC50 viability, macrophages D560 [13]
25.1 nM		19.4 nM		2.63 nM			21.1 nM					AL2p-62 (antibody, V domains shown, Fab and IgG formats under one id) VH: QVQLVQSGAEVKKPGASVKVSCKASGYAFSSQWMNWVRQAPGQRLEWIGRIYPGEGDTNYAGKFQGRVTITADTSASTAYMELSSLRSEDTAVYYCARLLRNQPGESYAMDYWGQGTLVTVSS VL: DVVMTQSPDSLAVSLGERATINCRSSQSLVHSNQYTYLHWYQQKPGQSPKLLIYKVSNRFSGVPDRFSGSGSGTDFTLTISSLQAEDVAVYYCSQSTRVPYTFGGGTKVEIK						
				1.12 nM								AL2p-60 (antibody, IgG1, V domains shown) VH: QVQLVQSGAEVKKPGSSVKVSCKASGYAFSSQWMNWVRQAPGQGLEWMGRIYPGEGDTNYARKFQGRVTITADESTSTAYMELSSLRSEDTAVYYCARLLRNQPGESYAMDYWGQGTLVTVSS VL: GVVMTQTPLSLSVTPGQPASISCRSSQSLVHSNQYTYLHWYLQKPGQSPQLLIYKVSNRRSGVPDRFSGSGSGTDFTLKISRVEAEDVGVYYCSQSTRVPYTFGQGTKLEIK		0.152 nM	0.244 nM	0.178 nM	0.194 nM	0.154 nM

The remaining lines, values behind:

Binder	luciferase activation, soluble IgG, EC50 [1]	Kd [2]	Kd [3]	Kd [4]	Kd [5]	Luciferase activation plate bound 33 nM IgG, FOC [7]	Luciferase activation soluble 10 nM IgG, FOC [7]	Kd [8]	Kd [9]	MFI [10]	Soluble luciferase activation at 10 µg/ml Fold over control [11]	cell binding (FOB) [12]	Survival huDCs plate bound IgG, AUC [6]	EC50 viability, dendritic cells D558 [13]	EC50 viability, dendritic cells D559 [13]	EC50 viability, dendritic cells D560 [13]	EC50 viability, macrophages D559 [13]	EC50 viability, macrophages D560 [13]
AL2p-3 (antibody, V domains shown, AL2p-h50 variant; Fab and IgG formats under one id) VH: QVQLVQSGAEVKKPGSSVKVSCKASGYAFSSSWMNWVRQAPGQGLEWMGRIYPGEGDTNYAQKFQGRVTITADESTSTAYMELSSLRSEDTAVYYCARLLRNQPGESYAMDYWGQGTLVTVSS VL: DVVMTQTPLSLSVTPGQPASISCRSSQSLVHSNGYTYLHWYLQKPGQSPQLLIYKVSNRFSGVPDRFSGSGSGTDFTLKISRVEAEDVGVYYCSQSTRVPYTFGQGTKLEIK	50 nM	1.19 nM	4580 nM	2.3 nM	2.3 nM	6.03 FOC	1.29 FOC						363000 AUC					
AL2p-h77 (antibody, human IgG1, V domains shown, humanized, human IgG1; Fab and IgG formats under one id; also called A2p-h77) VH: QVQLVQSGAEVKKPGASVKVSCKASGYAFSSSWMNWVRQAPGQRLEWIGRIYPGDGDTNYAQKFQGRVTITADTSASTAYMELSSLRSEDTAVYYCARLLRNQPGESYAMDYWGQGTLVTVSS VL: DVVMTQSPDSLAVSLGERATINCRSSQSLVHSNGYTYLHWYQQKPGQSPKLLIYKVSNRFSGVPDRFSGSGSGTDFTLTISSLQAEDVAVYYCSQSTRVPYTFGGGTKVEIK	20.1 nM	1.17 nM	184 nM	3.9 nM		6.77 FOC	1.47 FOC	102 nM	93.9 nM	162 MFI	7.14 fold over control	83 FOB	381000 AUC					
AL2p-5 (antibody, V domains shown, AL2p-h50 variant; Fab and IgG formats under one id; also called AL2-5) VH: QVQLVQSGAEVKKPGSSVKVSCKASGYAFSSSWMNWVRQAPGQGLEWMGRIYPGDGDTNYAQKFQGRVTITADESTSTAYMELSSLRSEDTAVYYCARLLRNQPGESYAMDYWGQGTLVTVSS VL: DVVMTQTPLSLSVTPGQPASISCRSSQSLVHSNRYTYLHWYLQKPGQSPQLLIYKVSNRFSGVPDRFSGSGSGTDFTLKISRVEAEDVGVYYCSQSTRVPYTFGQGTKLEIK	38.1 nM		4630 nM	2 nM	2 nM	9.99 FOC	1.27 FOC	99.2 nM					710000 AUC					
AL2p-59 (antibody, V domains shown, Fab and IgG formats under one id) VH: QVQLVQSGAEVKKPGSSVKVSCKASGYAFSSHWMNWVRQAPGQGLEWMGRIYPGEGQTNYAQKRQGRVTITADESTSTAYMELSSLRSEDTAVYYCARLLRNQPGESYAMDYWGQGTLVTVSS VL: GVVMTQTPLSLSVTPGQPASISCRTSQSLVHSNQYTYLHWYLQKPGQSPQLLIYKVSNRVSGVPDRFSGSGSGTDFTLKISRVEAEDVGVYYCSQSTRVPYTFGQGTKLEIK	11.2 nM		3.95 nM		1.24 nM			3.85 nM										
